Changes are numbered by the printed parent chain. Where two headings read alike, the source gives them in different places.
B1: HCV 208A-967 (antibody, V domains shown)
VH: QVQLEESGPGLVAPSQSLSITCTVSGFSLTSYGVHWVRQPPGKGLEWLGVIWAVGSINYNSALMSRLSISKDNSKSQVFLKMNSLRTDDTAMYYCARDRTTATPFFDYWGQGTTLTVSS
VL: DIVLTQSPASLAGSLGKRAPISCKASESVNFFGTNLIHWYQQKPGQPPKLLIYHASNLKTGVPARFRGRGSKTNFPLPIDPVEENDVAIYYCLQNRKIPLTFGVGTKLELKR
B2: HCV 208B-174 (antibody, V domains shown)
VH: EVKLEESGGGLVQPGGSMKLSCVASGFSFSSYWMSWVRQSPEKGLDWVAEIRLRSDNYATHYAESVKGRFTISRDDSISRLYLQMNTLRAEDTGIYYCTWMTYWGQGTLVTVSA
VL: QNVLTQSPAIMSASPGEKVTMSCSASSSVTYMFWYQLKPESSPRLLIYDTSNLASGVPVRFSGSGSGTSYSLTISRMEAEDAATYYCQEWSSYPLTFGAGTKLDLKR
B3: HCV 208A-983 (antibody, V domains shown)
VH: QGQMQQSGAELVKPGASVKLSCKTSGFTFSSSYFSWLKQKPGQSLEWIAWIYAGTGNTIYNQKFTDKAQLTVDTASSTAFMQLSSLTIEDSAIYYCAISGTGFTYWGQGTLVTVSA
VL: DVLMTQTPLSLPVNLGDQASISCRSSQSLLHSNGNTYLEWFLQKPGQSPKLLIYNVSNRFSGVPDRFSGSGSGTDFTLKISRVEAEDLGVYYCFQGSHVPFTFGSGTKLAIKR
B4: HCV 208B-471 (antibody, V domains shown)
VH: QGQLQQSGPVLVKPGASEILYCKTSGFTFSSTYISWLKQKPGQSLEWIAWIYAGTGATNYNQKFTGKAQLTVDASSNTAYMHFSGLTPEDSAIYYCAISGAGVYWGQGTLVTVSA
VL: B3 VL with L3V, N14S, F41Y, K50N, T77A, E84G, F101L, S105A, A110E, I111L

Tests used:
[1] = target: bovine serum albumin (bovine) (UniProt P02769); test: EIA, BSA control
[2] = target: bovine serum albumin (BSA) (bovine) (UniProt P02769); test: EIA, BSA background
[3] = target: bovine serum albumin (BSA) (bovine) (UniProt P02769); test: EIA, BSA background; remark: listed apart in the source
HCV Core1-169 (HCV-1) [4] = target: HCV Core1-169 (HCV-1) (UniProt P26664); test: EIA, core1-169 coated on plate
[5] = target: HCV Core1-169 (hepatitis C virus (HCV-1)) (UniProt P26664); test: SPR sandwich, capture mAb C11-3
[6] = target: HCV Core1-169 (hepatitis C virus (HCV-1)) (UniProt P26664); test: SPR sandwich, capture mAb C11-7
[7] = target: HCV Core1-169 (hepatitis C virus (HCV-1)) (UniProt P26664); test: SPR sandwich, capture mAb C11-9
[8] = target: HCV Core1-169 (hepatitis C virus (HCV-1)) (UniProt P26664); test: SPR sandwich, capture mAb C11-14
[9] = target: T1, HCV bt-134-154 (Peptide 1, HCVc 134-154) (Hepatitis C virus (numbering per HCV-1)); test: EIA, captured mAb + biotin peptide
T1 sequence (peptide, biotin (carboxy-terminal per [p-0227]; N-terminal per [p-0050])): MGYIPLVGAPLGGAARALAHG

[10] = target: T2, HCV bt-141-161 (Peptide 2, HCVc 141-161) (Hepatitis C virus (numbering per HCV-1)); test: EIA, captured mAb + biotin peptide
T2 sequence (peptide, biotin (carboxy-terminal per [p-0227]; N-terminal per [p-0050])): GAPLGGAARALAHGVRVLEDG

[11] = target: T3, HCV bt-151-171 (Peptide 3, HCVc 151-171) (Hepatitis C virus (numbering per HCV-1)); test: EIA, captured mAb + biotin peptide
T3 sequence (peptide, biotin (carboxy-terminal per [p-0227]; N-terminal per [p-0050])): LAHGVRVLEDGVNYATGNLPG

HCV Core1-169 (HCV-1) [12] = target: HCV Core1-169 (HCV-1) (UniProt P26664); test: EIA, core1-169 captured by mAb 14-153-229
[13] = target: T4, HCV Core1-169 (HCV-1), P26664; test: EIA, core1-169 coated on plate; settings: remark: other sources report otherwise
T4 chain: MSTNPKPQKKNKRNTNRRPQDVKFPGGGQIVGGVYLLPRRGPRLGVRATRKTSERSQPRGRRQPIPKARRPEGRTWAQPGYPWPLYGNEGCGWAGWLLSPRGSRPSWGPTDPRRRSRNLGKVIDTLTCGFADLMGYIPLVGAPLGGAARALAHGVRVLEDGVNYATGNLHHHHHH

[14] = target: T5, HCV Core1-169 (hepatitis C virus (HCV-1)), P26664; test: SPR sandwich, capture mAb C11-3; settings: remark: other sources report otherwise
T5 chain: T4 chain

[15] = target: T5, HCV Core1-169 (hepatitis C virus …); test: SPR sandwich, capture mAb C11-7; settings: remark: other sources report otherwise
[16] = target: T5, HCV Core1-169 (hepatitis C virus …); test: SPR sandwich, capture mAb C11-9; settings: remark: other sources report otherwise
[17] = target: T5, HCV Core1-169 (hepatitis C virus …); test: SPR sandwich, capture mAb C11-14; settings: remark: other sources report otherwise
[18] = target: T4, HCV Core1-169 (HCV-1), P26664; test: EIA, core1-169 captured by mAb 14-153-229; settings: remark: other sources report otherwise

Chain of bovine serum albumin (BSA) (bovine) (P02769 25-607 limits assumed): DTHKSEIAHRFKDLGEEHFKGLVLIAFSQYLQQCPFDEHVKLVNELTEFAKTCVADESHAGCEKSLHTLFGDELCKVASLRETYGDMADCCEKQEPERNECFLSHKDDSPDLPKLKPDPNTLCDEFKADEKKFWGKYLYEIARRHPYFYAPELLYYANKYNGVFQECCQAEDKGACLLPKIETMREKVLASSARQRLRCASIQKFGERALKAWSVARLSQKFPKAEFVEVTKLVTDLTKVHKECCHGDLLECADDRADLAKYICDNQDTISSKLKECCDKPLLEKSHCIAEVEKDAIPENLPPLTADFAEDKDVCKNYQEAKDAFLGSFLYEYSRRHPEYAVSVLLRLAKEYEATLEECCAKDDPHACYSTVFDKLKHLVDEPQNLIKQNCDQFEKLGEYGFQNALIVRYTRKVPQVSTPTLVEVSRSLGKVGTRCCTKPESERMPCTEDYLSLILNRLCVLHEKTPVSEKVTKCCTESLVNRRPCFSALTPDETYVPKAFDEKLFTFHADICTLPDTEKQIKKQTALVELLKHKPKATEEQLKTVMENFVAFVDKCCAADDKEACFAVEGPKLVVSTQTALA
Chain of bovine serum albumin (bovine) (P02769 25-607 limits assumed): as above

Binder | Reactivity (OD 492 nm) [1] [OD units] | OD (A492) [2] [OD] | OD (A492) [3] [OD] | OD (A492) (HCV Core1-169 (HCV-1) [4]) [OD] | expected percent binding [5] [%] | expected percent binding [6] [%] | expected percent binding [7] [%] | expected percent binding [8] [%] | Reactivity (OD 492 nm) [9] [OD units] | Reactivity (OD 492 nm) [10] [OD units] | Reactivity (OD 492 nm) [11] [OD units] | OD (A492) (HCV Core1-169 (HCV-1) [12]) [OD] | OD (A492) [13] [OD] | expected percent binding [14] [%] | expected percent binding [15] [%] | expected percent binding [16] [%] | expected percent binding [17] [%] | OD (A492) [18] [OD]
B1 | 0.07 | 1.3 | 0.15 | 1.08 | < 1 | < 1 | < 1 | < 1 | 0.52 | 0.73 | 0.18 | 0.18 | – | – | – | – | – | –
B2 | – | – | – | – | – | – | – | – | – | – | – | – | 0.15 | 1.6 | 1.5 | < 1 | 1.6 | 0.75
B3 | – | – | – | – | – | – | – | – | – | – | – | – | 0.12 | < 1 | < 1 | < 1 | < 1 | 0.64
B4 | – | – | – | – | – | – | – | – | – | – | – | – | 0.24 | < 1 | < 1 | < 1 | < 1 | 0.35

Reference: US20170052184A1
